The numbers were not newly measured in publication PMC3384300, which cites them from elsewhere.

In this data set the test system is MS2 coat protein (bacteriophage MS2?).

As for natural MS2 coat protein aptamer, the dissociation constant (Kd) (usually the equilibrium constant for the complex coming apart) is 0.02 nM.
